# Measured values from US20160185837A1 (AstraZeneca / MedImmune, published 2016).
# Residue numbers refer to the chain shown, from its start.
# T1: human GIP receptor (human, UniProt P48546 22-466)
# T1 sequence (looked up): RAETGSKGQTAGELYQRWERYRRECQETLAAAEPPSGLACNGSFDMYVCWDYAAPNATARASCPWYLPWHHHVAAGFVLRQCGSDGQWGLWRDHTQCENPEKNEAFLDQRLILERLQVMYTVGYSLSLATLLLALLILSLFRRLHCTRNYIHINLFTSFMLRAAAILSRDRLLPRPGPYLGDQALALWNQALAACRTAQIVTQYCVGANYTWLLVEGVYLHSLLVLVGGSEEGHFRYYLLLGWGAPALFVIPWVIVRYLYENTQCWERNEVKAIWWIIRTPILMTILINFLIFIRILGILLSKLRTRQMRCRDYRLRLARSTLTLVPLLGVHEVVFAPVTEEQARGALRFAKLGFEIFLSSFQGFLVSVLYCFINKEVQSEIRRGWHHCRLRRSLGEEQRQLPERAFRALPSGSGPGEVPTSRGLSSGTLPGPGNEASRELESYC
# T2: rat GLP-1 receptor (rat, UniProt P32301 22-463)
# T2 sequence (looked up): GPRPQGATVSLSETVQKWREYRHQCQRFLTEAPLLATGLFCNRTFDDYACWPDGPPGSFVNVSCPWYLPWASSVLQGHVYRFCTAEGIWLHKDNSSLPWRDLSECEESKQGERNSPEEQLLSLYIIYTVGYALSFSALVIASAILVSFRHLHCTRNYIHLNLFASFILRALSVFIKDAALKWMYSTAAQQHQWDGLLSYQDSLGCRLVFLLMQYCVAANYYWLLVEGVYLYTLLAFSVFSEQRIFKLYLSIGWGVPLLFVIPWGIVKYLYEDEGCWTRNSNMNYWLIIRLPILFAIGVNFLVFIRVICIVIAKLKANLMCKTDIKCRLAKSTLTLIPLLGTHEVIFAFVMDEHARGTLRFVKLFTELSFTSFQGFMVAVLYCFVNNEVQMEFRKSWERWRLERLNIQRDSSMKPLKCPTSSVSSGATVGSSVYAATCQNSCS
# T3: mouse GLP-1 receptor (mouse, UniProt O35659 22-463)
# T3 sequence (looked up): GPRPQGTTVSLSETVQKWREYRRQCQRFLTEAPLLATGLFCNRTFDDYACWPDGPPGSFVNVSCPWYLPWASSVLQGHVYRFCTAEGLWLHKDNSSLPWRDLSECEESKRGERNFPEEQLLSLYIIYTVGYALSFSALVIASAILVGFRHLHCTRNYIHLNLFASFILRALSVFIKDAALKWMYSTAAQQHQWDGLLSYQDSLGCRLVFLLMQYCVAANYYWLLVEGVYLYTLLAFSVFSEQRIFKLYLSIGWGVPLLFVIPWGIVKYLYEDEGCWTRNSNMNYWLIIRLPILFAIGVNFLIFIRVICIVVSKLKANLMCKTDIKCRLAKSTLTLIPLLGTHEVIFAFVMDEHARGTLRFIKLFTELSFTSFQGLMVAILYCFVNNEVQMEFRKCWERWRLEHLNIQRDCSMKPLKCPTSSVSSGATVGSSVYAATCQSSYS
# T4: mouse GIP receptor (mouse, UniProt Q0P543 19-460)
# T4 sequence (looked up): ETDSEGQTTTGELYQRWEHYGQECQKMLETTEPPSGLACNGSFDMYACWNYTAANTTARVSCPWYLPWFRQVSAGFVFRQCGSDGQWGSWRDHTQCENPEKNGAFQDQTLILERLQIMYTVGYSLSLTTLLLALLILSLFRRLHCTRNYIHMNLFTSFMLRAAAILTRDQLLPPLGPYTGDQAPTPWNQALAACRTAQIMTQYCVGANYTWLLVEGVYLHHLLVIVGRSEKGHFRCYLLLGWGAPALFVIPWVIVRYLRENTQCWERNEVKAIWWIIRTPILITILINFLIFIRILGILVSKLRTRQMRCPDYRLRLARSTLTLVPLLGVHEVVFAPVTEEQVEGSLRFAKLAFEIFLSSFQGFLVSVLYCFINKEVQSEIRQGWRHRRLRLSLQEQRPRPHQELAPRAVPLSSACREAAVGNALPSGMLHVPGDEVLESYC
# T5: rat GIP receptor (rat, UniProt P43219 19-455)
# T5 sequence (looked up): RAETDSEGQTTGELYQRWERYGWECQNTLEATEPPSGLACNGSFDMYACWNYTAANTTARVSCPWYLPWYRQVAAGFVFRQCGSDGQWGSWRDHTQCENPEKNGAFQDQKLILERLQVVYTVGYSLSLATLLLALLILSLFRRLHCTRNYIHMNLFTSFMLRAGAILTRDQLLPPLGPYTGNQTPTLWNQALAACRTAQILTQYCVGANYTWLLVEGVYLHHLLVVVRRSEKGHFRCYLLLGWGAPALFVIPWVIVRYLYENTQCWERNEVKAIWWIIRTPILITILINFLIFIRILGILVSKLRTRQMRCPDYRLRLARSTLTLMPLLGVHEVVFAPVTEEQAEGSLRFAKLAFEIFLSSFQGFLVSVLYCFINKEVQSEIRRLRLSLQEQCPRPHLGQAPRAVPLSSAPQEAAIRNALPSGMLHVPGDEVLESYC
# B1: IP088 (Fc fusion)
# chain: YSEGTFTSDYSKLLEEEAVRLFIEWLVKGPAAAGGSGSTASSGSGSATGGGGAATHTCPPCPAPEF
# B2: IP372 (Fc fusion)
# chain: YSEGTFTSDYSIYLDEEAVRLFIEWLLAGGGGGGGSGGGGSGGGGSGGGGSACPPC
# B3: IP403 (Fc fusion)
# chain: YSEGTHTSDLRILLEEEAVRLFIEKLLAGGGSGGGGSGGGGSGGGGSGGGGSGGGGSGGGGSGGGGSACPPC
# B4: IP390 (Fc fusion)
# chain: YSEGTFTSDYSKLLEEEAVRLFIEWLVKGPGGGGGSGGGGSGGGGSGGGGSGGGGSACPPC
# B5: IP298 (Fc fusion)
# chain: YSEGTFTSDVSSYLERQAIDEFIAWLLKGGAAAGGSGSTASSGSGSATGGGGAATHTCPPC
# B6: IP304 (Fc fusion)
# chain: B5 chain with D20E
# B7: IP317 (Fc fusion)
# chain: B5 chain with R16K
# B8: IP374 (Fc fusion)
# chain: YSEGTFTSLYSKLLEEEAVRLFIEWLLAGGGGGGSGGGGSGGGGSGGGGSATHTCPPC
# B9: IP384 (Fc fusion)
# chain: B8 chain with L9D, A28K
# B10: IP400 (Fc fusion)
# chain: B8 chain with F6H, L9D, Y10L
# B11: IP382 (Fc fusion)
# chain: B8 chain with W25Y
# B12: IP379 (Fc fusion)
# chain: B8 chain with F6H, L9D, Y10F
# Biological target: T1, human GIP receptor
# Experiment: cell-based or functional assay
row,Binder,cAMP EC50
1,B1,0.016 nM

# Biological target: T6, human GLP-1 receptor (human, UniProt P43220 24-463)
# Experiment: cell-based or functional assay
row,Binder,cAMP EC50
1,B1,0.222 nM

# Biological target: T2, rat GLP-1 receptor
# Experiment: cell-based or functional assay
row,Binder,cAMP EC50
1,B1,0.038 nM

# Biological target: T3, mouse GLP-1 receptor
# Experiment: cell-based or functional assay
row,Binder,cAMP EC50
1,B1,0.42 nM

# Biological target: T4, mouse GIP receptor
# Experiment: cell-based or functional assay
row,Binder,cAMP EC50
1,B1,137 nM

# Biological target: cynomolgus monkey GLP-1 receptor (cynomolgus monkey, UniProt F8V479 24-463)
# Experiment: cell-based or functional assay
row,Binder,"cAMP EC50, 4.2% cyno serum albumin"
1,B1,0.19 nM

# Biological target: cynomolgus monkey glucagon receptor (cynomolgus monkey)
# Experiment: cell-based or functional assay
row,Binder,"cAMP EC50, 4.2% cyno serum albumin"
1,B1,> 1000 nM

# Biological target: T1, human GIP receptor
# Experiment: cell-based or functional assay
# Remark: another data set of the same source
row,Binder,cAMP EC50
1,B2,0.05 nM
2,B3,16 nM
3,B1,0.0078 nM
4,B4,0.0088 nM
5,B5,0.14 nM
6,B6,0.1 nM
7,B7,0.11 nM
8,B8,0.2 nM
9,B9,0.0062 nM
10,B10,0.002 nM
11,B11,0.19 nM
12,B12,0.0038 nM

# Biological target: T6, human GLP-1 receptor
# Experiment: cell-based or functional assay
# Remark: another data set of the same source
row,Binder,cAMP EC50
1,B2,0.71 nM
2,B3,960 nM
3,B1,0.076 nM
4,B4,0.13 nM
5,B5,0.18 nM
6,B6,0.16 nM
7,B7,0.13 nM
8,B8,1.4 nM
9,B9,0.091 nM
10,B10,0.29 nM
11,B11,1.5 nM
12,B12,0.84 nM

# Biological target: T2, rat GLP-1 receptor
# Experiment: cell-based or functional assay
# Remark: another data set of the same source
row,Binder,cAMP EC50
1,B2,2.9 nM
2,B3,73 nM
3,B1,0.033 nM
4,B4,0.024 nM
5,B5,0.015 nM
6,B6,0.024 nM
7,B7,0.012 nM
8,B8,0.89 nM
9,B9,0.024 nM
10,B10,0.19 nM
11,B11,0.68 nM
12,B12,1.5 nM

# Biological target: T5, rat GIP receptor
# Experiment: cell-based or functional assay
row,Binder,cAMP EC50
1,B2,27 nM
2,B3,0.02 nM
3,B1,0.1 nM
4,B4,0.23 nM
5,B5,7.5 nM
6,B6,4.6 nM
7,B7,5.3 nM
8,B8,0.41 nM
9,B9,0.043 nM
10,B10,0.087 nM
11,B11,0.92 nM
12,B12,0.41 nM

# Biological target: human glucagon receptor (human, UniProt P47871 26-477)
# Experiment: cell-based or functional assay
row,Binder,cAMP EC50
1,B2,> 3880 nM
2,B3,960 nM
3,B1,460 nM
4,B4,> 218 nM
5,B5,> 13100 nM
6,B6,2600 nM
7,B7,> 5550 nM
8,B8,> 2090 nM
9,B9,26 nM
10,B10,1300 nM
11,B11,120 nM
12,B12,> 13200 nM

# Biological target: T3, mouse GLP-1 receptor
# Experiment: cell-based or functional assay
# Remark: another data set of the same source
row,Binder,cAMP EC50
1,B2,33 nM
2,B3,> 1740 nM
3,B1,0.31 nM
4,B4,2 nM
5,B5,0.36 nM
6,B6,0.69 nM
7,B7,0.33 nM
8,B8,19 nM
9,B9,0.99 nM
10,B10,31 nM
11,B11,16 nM
12,B12,44 nM

# Biological target: T4, mouse GIP receptor
# Experiment: cell-based or functional assay
# Remark: another data set of the same source
row,Binder,cAMP EC50
1,B2,450 nM
2,B3,21 nM
3,B1,86 nM
4,B4,3.6 nM
5,B5,80 nM
6,B6,16 nM
7,B7,86 nM
8,B8,1.9 nM
9,B9,4.1 nM
10,B10,380 nM
11,B11,6.5 nM
12,B12,150 nM
